According to patent US11433139B2, “Peptide vaccines against interleukin-31” (Zoetis Services LLC, priority 2018, dated 2022):

Key:
[1] = test system: feline IL-31 11E12 mutant; experiment: Indirect ELISA, binding to feline IL-31 11E12 mutant; conditions: compared with wildtype
Source text: To determine the impact of mAbs 11E12 and 15H05 ability to bind these mutant forms of feline IL-31, an indirect ELISA was run using the mutants directly coated on to an immunoassay plate. […] The minor attenuation of mAb 15H05s binding to the 11E12 mutant is likely due to translational effects of the mutations from movement of the two front helices effecting the 15H05 binding site. The mutations designed to affect mAb 15H05s binding (mutant 15H05) show a complete loss of mAb 1505s ability to bind this IL-31 mutant by ELISA. Unlike the 11E12 mutant, the changes in the random coil recognized by mAb 15H05 (mutant 15H05) had no impact on mAb 11E12 binding further supporting the distinction between the two epitopes (FIG. 6C).

feline IL-31 = experiment: Inhibition of feline IL-31 induced pSTAT3 signaling in canine DH-82 cells; format: cell-based; conditions: feline IL-31, pSTAT3, canine DH82 cells (FIG. 3)
feline IL-31, sequence (as listed by the source): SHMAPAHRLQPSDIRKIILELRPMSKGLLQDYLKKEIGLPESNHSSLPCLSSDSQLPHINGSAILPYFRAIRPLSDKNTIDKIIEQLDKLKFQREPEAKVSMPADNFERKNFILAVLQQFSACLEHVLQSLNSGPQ
How it was run: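 DH-82 cells primed with canine IFN-γ 10 ng/mL for 24 h, FCWF4 with feline IFN-γ 125 ng/mL for 96 h, then serum-starved 2 h. mAb pre-incubated 1 h with 1 μg/mL canine or 0.2 μg/mL feline IL-31, cells stimulated 5 min; pSTAT3 by AlphaLISA SureFire, IC50 as half-maximal signalling reduction.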

wildtype feline IL-31 = experiment: Indirect ELISA, binding to wildtype feline IL-31
wildtype feline IL-31, sequence (as listed by the source): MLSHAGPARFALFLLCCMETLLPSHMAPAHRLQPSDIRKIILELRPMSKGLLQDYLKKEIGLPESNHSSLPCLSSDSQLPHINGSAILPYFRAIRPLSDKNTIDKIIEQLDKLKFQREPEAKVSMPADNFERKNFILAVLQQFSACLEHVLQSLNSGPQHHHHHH
How it was run: (§1)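 Wildtype or 15H05-epitope-mutant feline IL-31 coated directly onto plates as capture antigen (50 ng/well). Antibodies diluted in PBST, bound antibody detected with HRP-labelled secondary and TMB for 10 min at RT. Reaction stopped with 0.1 N HCl, then OD read at 450 nm.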

equine IL-31 = experiment: Biacore binding, single test concentration of antibody, equine IL-31 surface
equine IL-31, sequence (as listed by the source): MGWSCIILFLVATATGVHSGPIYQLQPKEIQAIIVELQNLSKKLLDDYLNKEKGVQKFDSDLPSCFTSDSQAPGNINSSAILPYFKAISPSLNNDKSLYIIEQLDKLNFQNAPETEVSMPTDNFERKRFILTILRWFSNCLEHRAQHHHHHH
Method: For the indirect ELISA, binding (ELISA OD) to wildtype feline IL-31 and a feline IL-31 15H05 mutant which had mutations in the monoclonal antibody 15H05 epitope region was assessed. To confirm binding, biacore analysis was performed using canine, feline, equine, human, the feline 15H05 mutant, and feline 11E12 mutant IL-31 proteins as surfaces and a single test concentration of antibody. The feline IL-31 11E12 mutant had mutations in the monoclonal antibody 11E12 epitope region.
For the indirect ELISA method, antibody binding to wildtype and feline IL-31 15H05 mutant proteins was assessed. […] In comparison, the 11E12 antibody bound to the wild-type feline IL-31 and its binding was not impacted by the mutations in the 15H05 epitope region as evidenced by the data in FIG. 4. To confirm binding, biacore analysis was performed using canine, feline, equine, human, feline 15H05 mutant, and feline 11E12 mutant IL-31 proteins as surfaces and a single test concentration of antibody. Similar to ELISA observations, all antibodies tested bound to wildtype feline IL-31. In agreement with the data described above in this section, mouse antibodies 11 E12 and 15H05 both bound to canine and feline IL-31 surfaces. […] From this group of nine fully canine antibodies, only ZIL1 and ZIL9 cross-reacted with equine IL-31. Of note, antibody 15H05 was the only one of all assayed herein that bound to canine, feline, and equine IL-31 indicating some level of epitope conservation across the three species. In contrast, none of the antibodies described herein bound to human IL-31. Additional biacore surfaces were used to verify ELISA observations showing differential binding of antibodies to wildtype feline IL-31 and two proteins with mutations in the 15H05 (15H05 mutant) or 11 E12 (11E12 mutant) epitopes. […] Differing results can be attributed to differences in the two assay methodologies.

canine IL-31 = experiment: Competition binding assessment using Biacore, canine IL-31 surface; conditions: sequential addition of 15H05 and 11E12, Biacore
canine IL-31, sequence (as listed by the source): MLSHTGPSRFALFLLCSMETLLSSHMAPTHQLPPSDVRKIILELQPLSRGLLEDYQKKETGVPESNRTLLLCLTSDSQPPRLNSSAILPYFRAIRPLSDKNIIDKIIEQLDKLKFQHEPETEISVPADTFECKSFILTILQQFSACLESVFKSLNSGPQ
Method: To further characterize the IL-31 epitopes bound by mAbs 15H05 and 11 E12, blocking experiments were performed using biacore where the surface containing the IL-31 protein was generated followed by sequential addition of antibodies. FIGS. 7A and 7B show the relative binding of each antibody to IL-31 following capture of 11E12 or 15H05. The columns labeled HBS-EP (assay buffer) indicate the maximum signal obtained from each antibody binding to the IL-31 surface alone without competition. […] The sensograms related to FIG. 7A show the disassociation kinetics of both antibodies are very slow on this newly formed biacore surface therefore no additional occupation of binding sites can occur with addition of the same antibody (data not shown).

[2] = test system: feline IL-31 15H05 mutant; experiment: Indirect ELISA, binding to feline IL-31 15H05 mutant; conditions: compared with wildtype
feline IL-31 15H05 mutant, sequence (as listed by the source, change not shown): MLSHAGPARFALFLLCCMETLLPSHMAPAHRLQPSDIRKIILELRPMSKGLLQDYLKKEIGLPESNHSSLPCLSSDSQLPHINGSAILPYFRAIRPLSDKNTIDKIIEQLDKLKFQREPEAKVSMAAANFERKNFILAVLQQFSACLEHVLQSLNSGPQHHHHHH
How it was run: as §1

feline IL-31 11E12 mutant, sequence (as listed by the source, change not shown): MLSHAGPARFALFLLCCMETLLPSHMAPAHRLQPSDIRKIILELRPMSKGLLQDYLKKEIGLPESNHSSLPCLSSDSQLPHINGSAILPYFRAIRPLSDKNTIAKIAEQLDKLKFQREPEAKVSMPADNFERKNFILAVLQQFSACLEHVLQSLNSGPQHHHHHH

B1: 15H05: mouse anti IL-31 monoclonal antibody, VH SEQ ID NO: 67, VL SEQ ID NO: 69 (antibody, listed as Mus musculus, V domains shown)
VH: QVQLQQSAAELARPGASVKMSCKTSGYTFTSYTIHWIKQRPGQGLEWIGNINPTSGYTENNQRFKDKTTLTVDRSSNTAYLQLHSLTSEDSAVYFCARWGFKYDGEWSFDVWGAGTTVTVSS
VL: DIQMNQSPSSLSASLGDTITVTCRASQGISIWLSWYQQKPGNIPKVLINKASNLHIGVPPRFSGSGSGTHFTLTITSLQPEDIATYYCLQSQTYPLTFGGGTKLEIN
[1]
  binding to feline IL-31 11E12 mutant (ELISA): partially attenuated
Feline IL-31
  potency (IC50) against feline IL-31 in canine DH82 cells: comparable
Wildtype feline IL-31
  binding to wildtype feline IL-31 (ELISA): capable of binding
Equine IL-31
  binding to equine IL-31 (Biacore): bound
Canine IL-31
  competition binding on canine IL-31: capable of binding to canine IL-31 in the presence of one another
[2]
  binding to feline IL-31 15H05 mutant (ELISA): complete loss
